The Human Domainome abundance scans (Beltran et al. 2025)
± gives the uncertainty stated by the source.

B1: POU domain, class 2, transcription factor 1, residues 285 to 354; numbered along this chain, P14859 (parent)
chain: LEELEQFAKTFKQRRIKLGFTQGDVGLAMGKLYGNDFSQTTISRFEALNLSFKNMCKLKPLLEKWLNDAE

Variants of: B1
Assay: abundance fitness (aPCA) (normalised: wild type 0, dead -1); higher = more abundant; growth selection in yeast, the domain comes from the species named
Conditions: Homo sapiens

| Variant | abundance fitness |
| --- | --- |
| LEELEQFAKTFKQRRIKLGFTQGDVGLAMGKLYGNDFSQTTISRFEALNLSFKNMCKLGPLLEKWLNDAE [K59G] | -0.175 ± 0.029 |
| LEELEQFAKTFKQRRIKLGFTQGDVGLAMGKLYGNDFSQTTISRFEALNLSFKNMCKLAPLLEKWLNDAE [K59A] | -0.028 ± 0.022 |
| LEELEQFAKTFKQRRIKLGFTQGDVGLAMGKLYGNDFSQTTISRFEALNLSFKNMCKLHPLLEKWLNDAE [K59H] | -0.014 ± 0.039 |
| LEELEQFAKTFKQRRIKLGFTQGDVGLAMGKLYGNDFSQTTISRFEALNLSFKNMCKLYPLLEKWLNDAE [K59Y] | -0.072 ± 0.054 |
| LEELEQFAKTFKQRRIKLGFTQGDVGLAMGKLYGNDFSQTTISRFEALNLSFKNMCKLMPLLEKWLNDAE [K59M] | -0.002 ± 0.056 |
| LEELEQFAKTFKQRRIKLGFTQGDVGLAMGKLYGNDFSQTTISRFEALNLSFKNMCKLNPLLEKWLNDAE [K59N] | -0.311 ± 0.054 |
| LEELEQFAKTFKQRRIKLGFTQGDVGLAMGKLYGNDFSQTTISRFEALNLSFKNMCKLIPLLEKWLNDAE [K59I] | -0.13 ± 0.051 |
| LEELEQFAKTFKQRRIKLGFTQGDVGLAMGKLYGNDFSQTTISRFEALNLSFKNMMKLKPLLEKWLNDAE [C56M] | 0.034 ± 0.064 |
| LEELEQFAKTFKQRRIKLGFTQGDVGLAMGKLYGNDFSQTTISRFEALNLSFKNMVKLKPLLEKWLNDAE [C56V] | -0.01 ± 0.036 |
| LEELEQFAKTFKQRRIKLGFTQGDVGLAMGKLYGNDFSQTTISRFEALNLSFKNMSKLKPLLEKWLNDAE [C56S] | 0.032 ± 0.022 |
| LEELEQFAKTFKQRRIKLGFTQGDVGLAMGKLYGNDFSQTTISRFEALNLSFKNMTKLKPLLEKWLNDAE [C56T] | 0.023 ± 0.027 |
| LEELEQFAKTFKQRRIKLGFTQGDVGLAMGKLYGNDFSQTTISRFEALNLSFKNMLKLKPLLEKWLNDAE [C56L] | -0.016 ± 0.033 |
| LEELEQFAKTFKQRRIKLGFTQGDVGLAMGKLYGNDFSQTTISRFEALNLSFKNMGKLKPLLEKWLNDAE [C56G] | -0.047 ± 0.022 |
| LEELEQFAKTFKQRRIKLGFTQGDVGLAMGKLYGNDFSQTTISRFEALNLSFKNMHKLKPLLEKWLNDAE [C56H] | -0.085 ± 0.04 |
| LEELEQFAKTFKQRRIKLGFTQGDVGLAMGKLYGNDFSQTTISRFEALNLSFKNMIKLKPLLEKWLNDAE [C56I] | -0.014 ± 0.088 |
| LEELEQFAKTFKQRRIKLGFTQGDVGLAMGKLYGNDFSQTTISRFEALNLSFKNMFKLKPLLEKWLNDAE [C56F] | 0.027 ± 0.066 |
| LEELEQFAKTFKQRRIKLGFTQGDVGLAMGKLYGNDFSQTTISRFEALNLSFKNMKKLKPLLEKWLNDAE [C56K] | -0.201 ± 0.08 |
| LEELEQFAKTFKQRRIKLGFTQGDVGLAMGKLYGNDFSQTTISRFEALNLSFKNMQKLKPLLEKWLNDAE [C56Q] | 0.063 ± 0.041 |
| LEELEQFAKTFKQRRIKLGFTQGDVGLAMGKLYGNDFSQTTISRFEALNLSFKNMPKLKPLLEKWLNDAE [C56P] | -0.681 ± 0.029 |
| LEELEQFAKTFKQRRIKLGFTQGDVGLAMGKLYGNDFSQTTISRFEALNLSFKNMAKLKPLLEKWLNDAE [C56A] | -0.004 ± 0.023 |

| Variant | abundance fitness |
| --- | --- |
| LEELEQFAKTFKQRRIKLGFTQGDVGLAMGKLYGNDFSQTTISRFEALNLSFKNMWKLKPLLEKWLNDAE [C56W] | -0.005 ± 0.039 |
| LEELEQFAKTFKQRRIKLGFTQGDVGLAMGKLYGNDFSQTTISRFEALNLSFKNMYKLKPLLEKWLNDAE [C56Y] | 0.042 ± 0.081 |
| LEELEQFAKTFKQRRIKLGFTQGDVGLAMGKLYGNDFSQTTISRFEALNLSFKNMCFLKPLLEKWLNDAE [K57F] | -0.027 ± 0.033 |
| LEELEQFAKTFKQRRIKLGFTQGDVGLAMGKLYGNDFSQTTISRFEALNLSFKNMCPLKPLLEKWLNDAE [K57P] | -0.451 ± 0.022 |
| LEELEQFAKTFKQRRIKLGFTQGDVGLAMGKLYGNDFSQTTISRFEALNLSFKNMCILKPLLEKWLNDAE [K57I] | -0.058 ± 0.057 |
| LEELEQFAKTFKQRRIKLGFTQGDVGLAMGKLYGNDFSQTTISRFEALNLSFKNMCRLKPLLEKWLNDAE [K57R] | -0.047 ± 0.026 |
| LEELEQFAKTFKQRRIKLGFTQGDVGLAMGKLYGNDFSQTTISRFEALNLSFKNMCWLKPLLEKWLNDAE [K57W] | -0.042 ± 0.032 |
| LEELEQFAKTFKQRRIKLGFTQGDVGLAMGKLYGNDFSQTTISRFEALNLSFKNMCSLKPLLEKWLNDAE [K57S] | -0.006 ± 0.02 |
| LEELEQFAKTFKQRRIKLGFTQGDVGLAMGKLYGNDFSQTTISRFEALNLSFKNMCLLKPLLEKWLNDAE [K57L] | -0.005 ± 0.02 |
| LEELEQFAKTFKQRRIKLGFTQGDVGLAMGKLYGNDFSQTTISRFEALNLSFKNMCELKPLLEKWLNDAE [K57E] | -0.004 ± 0.068 |
| LEELEQFAKTFKQRRIKLGFTQGDVGLAMGKLYGNDFSQTTISRFEALNLSFKNMCVLKPLLEKWLNDAE [K57V] | -0.024 ± 0.037 |
| LEELEQFAKTFKQRRIKLGFTQGDVGLAMGKLYGNDFSQTTISRFEALNLSFKNMCGLKPLLEKWLNDAE [K57G] | -0.082 ± 0.05 |
| LEELEQFAKTFKQRRIKLGFTQGDVGLAMGKLYGNDFSQTTISRFEALNLSFKNMCQLKPLLEKWLNDAE [K57Q] | -0.018 ± 0.032 |
| LEELEQFAKTFKQRRIKLGFTQGDVGLAMGKLYGNDFSQTTISRFEALNLSFKNMCALKPLLEKWLNDAE [K57A] | -0.031 ± 0.03 |
| LEELEQFAKTFKQRRIKLGFTQGDVGLAMGKLYGNDFSQTTISRFEALNLSFKNMCYLKPLLEKWLNDAE [K57Y] | 0.031 ± 0.028 |
| LEELEQFAKTFKQRRIKLGFTQGDVGLAMGKLYGNDFSQTTISRFEALNLSFKNMCMLKPLLEKWLNDAE [K57M] | -0.063 ± 0.037 |
| LEELEQFAKTFKQRRIKLGFTQGDVGLAMGKLYGNDFSQTTISRFEALNLSFKNMCDLKPLLEKWLNDAE [K57D] | 0.04 ± 0.056 |
| LEELEQFAKTFKQRRIKLGFTQGDVGLAMGKLYGNDFSQTTISRFEALNLSFKNMCHLKPLLEKWLNDAE [K57H] | -0.069 ± 0.035 |
| LEELEQFAKTFKQRRIKLGFTQGDVGLAMGKLYGNDFSQTTISRFEALNLSFKNMCCLKPLLEKWLNDAE [K57C] | 0.005 ± 0.035 |
